# Assay results taken from article PMC6547453 (2019).
# T1: EsCas13d ([Eubacterium] siraeum DSM 15702)
# T1 chain: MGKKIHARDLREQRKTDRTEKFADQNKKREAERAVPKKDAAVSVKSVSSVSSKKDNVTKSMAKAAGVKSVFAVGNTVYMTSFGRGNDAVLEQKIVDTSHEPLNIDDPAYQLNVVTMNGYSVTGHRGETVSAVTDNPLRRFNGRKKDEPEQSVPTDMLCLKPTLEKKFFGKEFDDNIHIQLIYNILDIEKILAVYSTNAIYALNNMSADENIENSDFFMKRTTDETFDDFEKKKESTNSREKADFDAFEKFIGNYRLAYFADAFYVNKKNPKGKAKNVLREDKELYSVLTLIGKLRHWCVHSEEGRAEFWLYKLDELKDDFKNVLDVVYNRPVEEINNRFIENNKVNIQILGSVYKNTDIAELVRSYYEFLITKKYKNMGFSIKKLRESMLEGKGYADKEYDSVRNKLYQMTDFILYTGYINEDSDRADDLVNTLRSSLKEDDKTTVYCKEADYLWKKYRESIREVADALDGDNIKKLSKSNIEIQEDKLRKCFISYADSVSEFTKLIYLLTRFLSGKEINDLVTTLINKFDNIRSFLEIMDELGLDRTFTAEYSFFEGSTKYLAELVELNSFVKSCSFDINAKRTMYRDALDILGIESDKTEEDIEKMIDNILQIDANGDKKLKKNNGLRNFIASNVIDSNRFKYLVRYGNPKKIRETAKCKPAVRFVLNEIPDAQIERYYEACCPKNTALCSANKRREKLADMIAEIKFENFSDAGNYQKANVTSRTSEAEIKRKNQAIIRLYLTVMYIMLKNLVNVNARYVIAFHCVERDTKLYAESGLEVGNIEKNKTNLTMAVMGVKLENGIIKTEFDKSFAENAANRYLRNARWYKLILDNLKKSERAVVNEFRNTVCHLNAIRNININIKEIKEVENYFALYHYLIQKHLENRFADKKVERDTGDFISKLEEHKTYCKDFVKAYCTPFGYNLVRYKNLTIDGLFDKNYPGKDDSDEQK
# B1: full-length RspWYL1 (Ruminococcus sp. WYL1, amino acids 1–392) (natural protein)
# chain: MLIPPSTFLPKRDKNVPYIAEVQSIPLSPSAYSVIIKDKSIFETSLSPNGSVSMSSFLTSIFDSAYIASLKYKSDDNYKYIGIPLLNAFVEWQIEEIDDSLDDKSKEIIKSYLISKLSAKYEKTKTENAVRVRLSICRDLYDTLSSDDLYYENKVYSLTLRRFLKAVYEDYALLSDCERERLIFADNIIKINEVIKQNGSRYYSFIYAYSNMYSREKRRIRLIPYRIVSDEYKMYNYLVCLSDEKSAGKEFKADSYRISRLSGLSIAEKLSQKEYSSVTEYERLKEGHVKSVKHLLSDPRFGSDESDISKVYLTEKGVEMFRKILYQRPILKGNEKPKPNTVNEFISPPIQVKYYFNKFGKDGVILSPSDSFEEMRTLYVEGADAYNREVEM
# modifications: apo (no crRNA); full length assumed, since limits are not given; 954 aa matches the known EsCas13d length
# B2: full-length RspWYL1 (Ruminococcus sp. WYL1, amino acids 1–392) (natural protein)
# chain: B1 chain
# How the values were obtained:
# EsCas13d = molecular target: T1, EsCas13d; assay: ITC
# RspCas13d = RspCas13d (Ruminococcus sp. (from the prefix Rsp, …)); assay: ITC
binder,measurement,setting,value
B1,Kd,EsCas13d,~270 µM
B2,Kd,RspCas13d,~250 µM
